Test [1] deals with T1, Cyno NRP-1 His (cynomolgus monkey, UniProt O14786 22-856 (human entry), limits assumed).
T1 construct: Recombinant monomeric protein; also called cynomolgus monkey NRP-1-His; cNRP-1; not shown: His tag
T1 chain: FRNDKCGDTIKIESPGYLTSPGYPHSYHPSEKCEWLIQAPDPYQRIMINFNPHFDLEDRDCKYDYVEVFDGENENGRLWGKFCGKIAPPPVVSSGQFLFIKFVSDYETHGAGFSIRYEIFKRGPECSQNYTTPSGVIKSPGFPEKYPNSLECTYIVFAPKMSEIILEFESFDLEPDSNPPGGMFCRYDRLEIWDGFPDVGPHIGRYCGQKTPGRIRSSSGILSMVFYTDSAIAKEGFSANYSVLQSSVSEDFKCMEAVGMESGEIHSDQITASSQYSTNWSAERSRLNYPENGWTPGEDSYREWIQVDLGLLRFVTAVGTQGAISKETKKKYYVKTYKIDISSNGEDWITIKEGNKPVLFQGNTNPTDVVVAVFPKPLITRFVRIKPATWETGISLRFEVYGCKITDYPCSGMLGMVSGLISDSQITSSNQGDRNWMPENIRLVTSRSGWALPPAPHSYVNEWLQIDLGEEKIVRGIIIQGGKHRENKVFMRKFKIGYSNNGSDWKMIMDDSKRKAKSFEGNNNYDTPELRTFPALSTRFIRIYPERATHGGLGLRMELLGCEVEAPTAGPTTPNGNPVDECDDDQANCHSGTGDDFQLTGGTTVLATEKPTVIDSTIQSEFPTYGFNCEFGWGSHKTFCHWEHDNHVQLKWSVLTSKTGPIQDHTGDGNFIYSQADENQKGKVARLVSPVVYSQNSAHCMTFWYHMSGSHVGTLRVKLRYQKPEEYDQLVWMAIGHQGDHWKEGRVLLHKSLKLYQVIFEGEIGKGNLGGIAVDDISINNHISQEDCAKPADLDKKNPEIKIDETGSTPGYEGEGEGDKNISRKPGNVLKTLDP
Kind of test: BLI ForteBio, IgG1 N297A on AHQ sensor, 100 nM monomeric antigen, 1:1 fit. For orientation: Biolayer interferometry detects binding as a change in optical thickness at a sensor tip.

Test [2] has as its target T2, Human NRP-1 His (human, UniProt O14786 22-856).
T2 construct: Recombinant monomeric protein; Biotinylated in the MSD-SET assay; also called hNRP-1; not shown: His tag
The description is as above.

Test [3] addresses T3, Mouse NRP-1 His (mouse, UniProt P97333 22-856).
T3 construct: Recombinant monomeric protein; also called mNRP-1; not shown: His tag
The description is as above.

The target of test [4] is T4, recombinant human NRP-1 (human, UniProt O14786 22-856, limits assumed).
T4 construct: also called biotinylated human NRP-1
T4 sequence (O14786 22-856 V179A limits assumed): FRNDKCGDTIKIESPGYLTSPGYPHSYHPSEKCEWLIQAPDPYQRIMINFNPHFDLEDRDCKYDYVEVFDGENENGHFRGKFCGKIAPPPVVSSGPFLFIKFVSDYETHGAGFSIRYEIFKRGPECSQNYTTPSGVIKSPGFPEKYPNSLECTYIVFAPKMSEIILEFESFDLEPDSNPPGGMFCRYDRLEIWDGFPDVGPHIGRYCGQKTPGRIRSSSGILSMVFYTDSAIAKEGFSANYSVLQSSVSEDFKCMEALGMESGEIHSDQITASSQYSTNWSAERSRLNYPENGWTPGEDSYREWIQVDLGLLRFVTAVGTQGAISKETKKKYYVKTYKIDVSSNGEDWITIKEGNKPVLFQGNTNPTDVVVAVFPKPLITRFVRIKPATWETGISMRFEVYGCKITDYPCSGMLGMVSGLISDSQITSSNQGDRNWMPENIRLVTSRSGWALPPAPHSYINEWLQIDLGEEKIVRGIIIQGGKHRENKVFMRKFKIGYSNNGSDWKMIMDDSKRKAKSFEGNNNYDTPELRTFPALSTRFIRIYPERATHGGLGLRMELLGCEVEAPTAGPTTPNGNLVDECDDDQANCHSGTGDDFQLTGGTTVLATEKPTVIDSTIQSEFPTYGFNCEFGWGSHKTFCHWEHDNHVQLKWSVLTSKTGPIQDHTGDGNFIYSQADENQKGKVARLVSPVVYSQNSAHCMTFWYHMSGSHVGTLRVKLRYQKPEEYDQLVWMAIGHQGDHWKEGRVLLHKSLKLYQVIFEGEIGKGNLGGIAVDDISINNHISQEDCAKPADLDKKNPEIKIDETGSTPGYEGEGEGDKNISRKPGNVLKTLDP
Kind of test: blocking ELISA: SEMA3A coated, biotinylated human NRP-1 preincubated with IgG1 antibody; competitor SEMA3A. In general terms: ELISA stands for enzyme-linked immunosorbent assay.

In test [5] the target is T2, Human NRP-1 His. Kind of test: MSD-SET solution equilibrium titration, Fab.
Target sequence in this assay (O14786 22-856 V179A limits assumed): as above

Residue numbers refer to the chain shown, from its start.

B1: MAB15 (antibody, V domains shown)
VH: QVQLQQWGAGLLKPSETLSLTCAVYGGSFVKYYWSWIRQPPGKGLEWIGDIWHSGMTNYNPSLKSRVTISVDTSKNQFSLKLSSVTAADTAVYYCARGPGYDSSGYSRRFDPWGQGTLVTVSS
VL: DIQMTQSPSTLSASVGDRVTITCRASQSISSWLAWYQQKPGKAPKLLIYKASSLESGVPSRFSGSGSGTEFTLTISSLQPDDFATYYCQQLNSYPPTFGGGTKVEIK
B1: the Kd in test [1] amounted to 9.2 nM; in test [2], 0.851 nM; in test [3], 54.1 nM.

B2: MAB5 (antibody, V domains shown)
VH: QVQLVQSGAEVKKPGASVKVSCKASGYTFTSYYMHWVRQAPGQGLEWMGIINPQGGDTSYAQKFQGRVTMTRDTSTSTVYMELSSLRSEDTAVYYCARDRGMYYASGFGPWGQGTLVTVSS
VL: EIVMTQSPGTLSLSPGERATLSCRASQSVSSSYLAWYQQKPGQAPRLLIYGASNRATGIPDRFSGSGSGTDFTLTISRLEPEDFAVYYCQQLSSFPITFGGGTKVEIK
On to B2, for which the Kd was 4.09 nM in test [1], 3.23 nM in test [2] and 5.06 nM in test [3]. In test [4], the IC50 is 5.9 nM.

B3: MAB5 Fab (Fab, V domains shown)
VH: B2 VH
VL: B2 VL
For B3, the Kd in test [5] turned out to be 0.28 nM.

B4: MAB6 Fab (Fab, V domains shown)
VH: B2 VH with E10K, A40V, G109N
VL: B2 VL
In turn, B4 had a dissociation constant (Kd) in test [5] of 0.45 nM.

B5: MAB8 Fab (Fab, V domains shown)
VH: EVQLLESGGGLVQPGGSLRLSCAASGFTFASYAMVWVRQAPGKGLEWVSIISGSGGSTYYADSVKGRFTISRDNSKNTLYLQMNSLRAEDTAVYYCAKDPGYDSSRYYYSNYGMDVWGQGTTVTVSS
VL: DIQMTQSPSSLSASVGDRVTITCRASQSISSYLNWYQQKPGKAPKLLIYGASSLQSGVPSRFSGSGSGTDFTLTISSLQPEDFATYYCQQTYSLYTFGGGTKVEIK
For the molecule B5, the equilibrium dissociation constant (Kd) in test [5] was determined as 0.096 nM. This Kd lies about 4.7-fold lower than the previous one.

B6: MAB10 Fab (Fab, V domains shown)
VH: B5 VH with A30S, Y32V, I50A, S57A
VL: B5 VL
In the case of B6, the dissociation constant Kd in test [5] is 0.064 nM.

B7: MAB11 Fab (Fab, V domains shown)
VH: B5 VH with A30S, Y32V, I50A, S57A, K65E, N84S
VL: B5 VL
On to B7, for which the Kd in test [5] came out at 0.021 nM.

B8: MAB9 Fab (Fab, V domains shown)
VH: B5 VH with A30K, S57A
VL: B5 VL
As for B8, the Kd in test [5] worked out at 0.019 nM.

B9: MAB12 Fab (Fab, V domains shown)
VH: B5 VH with A30S, Y32V, I50A, S57A, K65E
VL: B5 VL
The molecule B9 gave a dissociation constant (Kd) in test [5] of 0.026 nM.

B10: MAB1 (antibody, V domains shown)
VH: QVQLVQSGAGVKKPGASVKVSCKASGYTFRSYYMLWVRQAPGQGLEWMGIIDPSDGSTSYAQKFQGRVTMTRDTPTSTVYMELSSLRSEDTAVYYCARGARRITGYGMDVWGQGTTVTVSS
VL: DIQMTQSPSSVSASVGDRVTITCRASQGISSWLAWYQQKPGKAPKLLIYAASNLQSGVPSRFSGSGSGTDFTLTISSLQPEDFATYYCQQASVFPFTFGGGTKVEIK
Regarding B10, the dissociation constant Kd in test [1] came to 2.16 nM; in test [2], 1.87 nM; in test [3], 2.12 nM. The IC50 in test [4] turned out to be 2.9 nM.

B11: MAB3 (antibody, V domains shown)
VH: QAQLVQSGAEVKKPGASVKVSCKASGYTFSRYYMHWVRQAPGQGLEWMGIINPLGGSTLYAQKFQGRVTMTRDTSTSTVYMELSSLRSEDTAVYYCARDLGYYGSGMHAWGQGTLVTVSS
VL: B10 VL with S31R, N53S, S92N, V93L, F94L
On to B11, for which the values for the Kd in test [1], in test [2] and in test [3] were 1.19 nM, 1.08 nM and 0.99 nM, respectively. In addition, the IC50 in test [4] is 0.6 nM.

B12: MAB3 Fab (Fab, V domains shown)
VH: B11 VH
VL: B10 VL with S31R, N53S, S92N, V93L, F94L
B12 yielded a Kd in test [5] of 0.06 nM. This counts as picomolar.

B13: MAB13 (antibody, V domains shown)
VH: QVQLQQWGAGLLKPSETLSLTCAVYGGSFRGYYWEWIRQPPGKGLEWIGEISHSGSTNYNPSLKSRVTISVDTSKNQFSLKLSSVTAADTAVYYCARARPYREPYGMDVWGQGTTVTVSS
VL: B10 VL with M4L, G28D, N53S, A91E, S92L, V93A, F96R
For B13, the Kd came to 1.58 nM in test [1], 1.41 nM in test [2] and 7.42 nM in test [3]. In addition, in test [4], the IC50 came out at 3.4 nM.

B14: MAB4 Fab (Fab, V domains shown)
VH: B11 VH with A2V, A109V
VL: B10 VL with S31R, N53S, S92N, V93L, F94L
With B14, in test [5], the affinity, expressed as Kd, was 0.046 nM.

B15: MAB14 Fab (Fab, V domains shown)
VH: B13 VH with I37S, S84P
VL: B10 VL with M4L, G28D, N53S, A91E, S92L, V93A, F96R
In test [5], B15 registered a Kd of 0.28 nM.

B16: MAB4 (antibody, V domains shown)
VH: B11 VH with A2V, A109V
VL: B10 VL with S31R, N53S, S92N, V93L, F94L
On to B16, for which the Kd amounted to 0.925 nM in test [1], 0.851 nM in test [2] and 0.746 nM in test [3]. Further, the IC50 in test [4] turned out to be 3.9 nM.

B17: MAB14 (antibody, V domains shown)
VH: B13 VH with I37S, S84P
VL: B10 VL with M4L, G28D, N53S, A91E, S92L, V93A, F96R
Regarding B17, the Kd came to 1.1 nM in test [1], 1.12 nM in test [2] and 5 nM in test [3]. Moreover, in test [4], the IC50 is 3.1 nM.

B18: MAB2 Fab (Fab, V domains shown)
VH: B10 VH with G10E, T74A, P75S, T118I
VL: B10 VL
Regarding B18, binding in test [5] was put at a Kd of 0.23 nM.

B19: MAB2 (antibody, V domains shown)
VH: B10 VH with G10E, T74A, P75S, T118I
VL: B10 VL
As to B19, the Kd in test [1] turned out to be 2.43 nM; in test [2], 1.86 nM; in test [3], 1.94 nM. Also, the IC50 in test [4] was 3.1 nM.

For orientation: Kd means a measure of binding affinity in units of concentration. The low end stands for a tighter complex, the high end for a looser complex. One may read the IC50 as the concentration at which inhibition is half-maximal.

For the origin of these results see patent publication US20190119389A1 (POTENZA THERAPEUTICS, published 2019).
